As a reminder, the stoichiometry N is a count of units in the complex or per binding partner.

These results are taken from publication PMC3144226, “Conformational Plasticity of proNGF” (PLoS ONE, 2011).

Series [1] has as its target recombinant murine proNGF (proNGF25, the short form of the precursor protein) (murine) (UniProt P01139). Nature of the series: NMR diffusion (PFG-LED); diffusion compared with model proteins (IscS dimer, DHFR, NusA KH domain); phosphate buffer pH 7, 25°C.
Series [2] deals with the molecule itself. Nature of the series: 1D 1H NMR spectrum (linewidths); unlabelled NGF; phosphate buffer pH 7, 25°C.

For the molecule “recombinant murine proNGF (proNGF25, the short form of the precursor protein) (from UniProt P01139 19-241) (natural protein)”, the stoichiometry N in series [1] amounted to 2.

B1: mature murine Nerve Growth Factor (NGF) (natural protein, UniProt P01139 122-241, looked up)
chain: SSTHPVFHMGEFSVCDSVSVWVGDKTTATDIKGKEVTVLAEVNINNSVFRQYFFETKCRASNPVESGCRGIDSKHWNSYCTTTHTFVKALTTDEKQAAWRFIRIDTACVCVLSRKATRRG
notes: mature NGF, murine, the cut product of proNGF25 after the furin site RSKR (118-121 of UniProt P01139); Trp21, Trp76, Trp99. numbers count on: the mature protein; The purified NGF was made by trypsin cleavage, the NGF of the furin experiment by furin cleavage in the tube; also called mature NGF; NGF moiety; source: in the furin experiment released from proNGF25 by furin in the NMR tube
Take B1: the binding result in series [2] is on record as “binds”.
